Results from paper doi:10.1101/2021.10.22.465432 (bioRxiv, 2021).

Biological target: T1, Drosha (mouse (endogenous in N2A), UniProt Q5HZJ0 1-1373)
T1 sequence: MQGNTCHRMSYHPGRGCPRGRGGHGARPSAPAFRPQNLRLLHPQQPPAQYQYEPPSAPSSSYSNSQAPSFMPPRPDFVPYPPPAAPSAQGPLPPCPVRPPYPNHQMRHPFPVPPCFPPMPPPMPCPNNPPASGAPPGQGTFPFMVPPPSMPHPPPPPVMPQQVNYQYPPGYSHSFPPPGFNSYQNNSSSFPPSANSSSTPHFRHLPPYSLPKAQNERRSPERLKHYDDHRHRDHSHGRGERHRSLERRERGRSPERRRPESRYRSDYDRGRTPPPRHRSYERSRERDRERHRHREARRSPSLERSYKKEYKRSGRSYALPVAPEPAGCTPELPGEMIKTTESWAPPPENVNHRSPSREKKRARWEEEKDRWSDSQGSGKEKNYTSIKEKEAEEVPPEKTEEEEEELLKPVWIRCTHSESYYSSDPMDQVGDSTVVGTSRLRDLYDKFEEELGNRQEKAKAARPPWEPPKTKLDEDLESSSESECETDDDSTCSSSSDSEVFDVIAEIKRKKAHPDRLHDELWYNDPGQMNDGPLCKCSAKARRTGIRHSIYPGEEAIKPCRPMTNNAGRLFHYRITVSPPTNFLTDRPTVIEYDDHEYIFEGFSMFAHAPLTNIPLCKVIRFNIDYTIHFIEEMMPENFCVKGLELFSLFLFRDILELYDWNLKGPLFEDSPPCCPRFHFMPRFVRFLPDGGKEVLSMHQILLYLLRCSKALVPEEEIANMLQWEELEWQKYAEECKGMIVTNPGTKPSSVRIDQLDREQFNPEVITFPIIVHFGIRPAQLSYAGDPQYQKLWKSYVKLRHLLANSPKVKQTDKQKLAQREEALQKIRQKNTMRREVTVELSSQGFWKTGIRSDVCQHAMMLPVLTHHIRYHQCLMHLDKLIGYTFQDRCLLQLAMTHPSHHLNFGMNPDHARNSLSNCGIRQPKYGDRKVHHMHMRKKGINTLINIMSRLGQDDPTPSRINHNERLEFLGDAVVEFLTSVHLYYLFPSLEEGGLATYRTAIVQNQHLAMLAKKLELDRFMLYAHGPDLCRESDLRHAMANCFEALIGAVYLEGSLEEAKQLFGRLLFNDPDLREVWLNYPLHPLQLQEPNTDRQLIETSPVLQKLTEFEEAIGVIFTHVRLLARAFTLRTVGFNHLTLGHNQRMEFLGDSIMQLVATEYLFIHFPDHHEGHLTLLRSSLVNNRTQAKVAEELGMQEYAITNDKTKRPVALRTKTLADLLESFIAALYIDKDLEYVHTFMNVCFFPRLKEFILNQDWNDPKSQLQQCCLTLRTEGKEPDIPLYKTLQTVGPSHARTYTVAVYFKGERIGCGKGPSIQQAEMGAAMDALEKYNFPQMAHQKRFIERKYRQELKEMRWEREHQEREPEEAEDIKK
Assay: co-IP

fold reduction in binding against Safb1 wild type: 5.7 fold
B1: Safb1-ΔRE-HA (natural protein)
chain: MAETLSGLGDASAAGAAAVSSAASETGTRRLSDLRVIDLRAELKKRNLDSSGNKSVLMERLKKAIEDEGGNPDEIEVTSECNKKMPKRPSKGRKPEDEGVEDNGLEENSGDGQEDVETSLENLQDMDMMDISVLDEADIDNGSVADCVEEEEEATLPEGLADSTELVEGDLKGLPEQLQEHAIDDKDTVNNVDTSSSDFTMLQEMEEASLEPENEKILDILGETCKSEPVKEEGSELEQPFAQATSSVGPDRKLAEEEDLFESCGHPEEEEEEEEEDQEEEQEEEGDLALASSSKSESPSTRCQWSEADAPLAVVKREPADAPGGGTGMDREPVGLEEPVEQSSTAAQLPEATSQELVRAPTAALSPEPQDSKEDVKKFAFDACNDVPAPPKESSASEGADQKMSSVEEDSDTKRLSREEKGRSSCGRNFWVSGLSSTTRATDLKNLFSRYGKVVGAKVVTNARSPGARCYGFVTMSTAEEATKCISHLHKTELHGKMISVEKAKSEPTGKRVPDRRDGDSKKEKASTSDRSANLKREEKGERKDDAKKTDHREREELRRQQELRYEQERRPAVRRPYEVDGRRDDAYWPEAKRAALDDRYHSDFSRQDRFHDFDHRDRGRYPNHSVDRREGSRSMMGDREGQHYPERHGGPERHGRDSRDGWGYGSNKRLSEGRGLPPPPRRDWGEHGRRLEDDRAWQGTADGGMMERDHKRWQGGERSMSGHSGPGHMMNRGGMSGRGSFAPGGASRGHVIPRGGMQAGFGGQSRGSRPSDARFTRRY
